This passage reports protein stability index results from the supplement of paper PMC10567573.

Sequences and labels used below:
B1: ETS1 (parent)
chain: YVRDRADLNKDKPVIPAAALAGYT
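Note: lentivirally expressed fusions sorted by FACS into six bins by GFP to DsRed ratio, PSI derived from sequencing read proportions per bin multiplied by bin number.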

In this data set the parent is B1. Kind of data set: protein stability index of a GFP-peptide fusion (GPS, HEK-293T) (PSI 1-6); higher = more stable. To be noted: c terminus: a fixed tail appended.
Turning to YVRDRAELNKDKPVIPAAALAGYT [D7E], the protein stability index stood at 2.37.

YVRDRAGLNKDKPVIPAAALAGYT [D7G]: the protein stability index was determined as 2.56.

For the variant YVRDRARLNKDKPVIPAAALAGYT [D7R], the protein stability index is 3.02.

For YVRDRAVLNKDKPVIPAAALAGYT [D7V], the protein stability index came to 3.53.

Consider YVRDRAWLNKDKPVIPAAALAGYT [D7W], for which the protein stability index was found to be 2.52.

Consider YVRDRACLNKDKPVIPAAALAGYT [D7C], for which the protein stability index worked out at 2.17.

As to YVRDRAILNKDKPVIPAAALAGYT [D7I], the protein stability index amounted to 3.04.

Regarding YVRDRANLNKDKPVIPAAALAGYT [D7N], the protein stability index was 2.98.

On to YVRDRAYLNKDKPVIPAAALAGYT [D7Y], for which the protein stability index is 2.37.

On to YVRDRAHLNKDKPVIPAAALAGYT [D7H], for which the protein stability index was found to be 2.91.

For YVRDRALLNKDKPVIPAAALAGYT [D7L], the protein stability index was determined as 2.51.

YVRDRAPLNKDKPVIPAAALAGYT [D7P]: the protein stability index was 3.16.

For YVRDRASLNKDKPVIPAAALAGYT [D7S], the protein stability index stood at 1.72.

For YVRDRAKLNKDKPVIPAAALAGYT [D7K], the protein stability index came out at 2.99.

For YVRDRAFLNKDKPVIPAAALAGYT [D7F], the protein stability index was found to be 2.17.

YVRDRAALNKDKPVIPAAALAGYT [D7A]: the protein stability index stood at 2.05.

Regarding YVRDRATLNKDKPVIPAAALAGYT [D7T], the protein stability index was found to be 3.92.

As for YVRDRAQLNKDKPVIPAAALAGYT [D7Q], the protein stability index was 2.77.

As for YVRDRAMLNKDKPVIPAAALAGYT [D7M], the protein stability index is 2.6.

As for YVRDRADFNKDKPVIPAAALAGYT [L8F], the protein stability index worked out at 2.72.

Regarding YVRDRADCNKDKPVIPAAALAGYT [L8C], the protein stability index was 1.96.

With YVRDRADHNKDKPVIPAAALAGYT [L8H], the protein stability index was 2.29.

Take YVRDRADENKDKPVIPAAALAGYT [L8E]: the protein stability index was 2.11.

As to YVRDRADANKDKPVIPAAALAGYT [L8A], the protein stability index was 2.17.

Consider YVRDRADDNKDKPVIPAAALAGYT [L8D], for which the protein stability index was determined as 1.67.

On to YVRDRADGNKDKPVIPAAALAGYT [L8G], for which the protein stability index worked out at 2.12.

As for WVRDRADLNKDKPVIPAAALAGYT [Y1W], the protein stability index turned out to be 3.77.

With MVRDRADLNKDKPVIPAAALAGYT [Y1M], the protein stability index came to 3.85.

For the variant EVRDRADLNKDKPVIPAAALAGYT [Y1E], the protein stability index turned out to be 4.38.

In the case of FVRDRADLNKDKPVIPAAALAGYT [Y1F], the protein stability index worked out at 2.22.

In the case of IVRDRADLNKDKPVIPAAALAGYT [Y1I], the protein stability index stood at 3.73.

Turning to QVRDRADLNKDKPVIPAAALAGYT [Y1Q], the protein stability index was determined as 4.41.

For VVRDRADLNKDKPVIPAAALAGYT [Y1V], the protein stability index worked out at 3.65.

RVRDRADLNKDKPVIPAAALAGYT [Y1R]: the protein stability index was found to be 3.88.

Take LVRDRADLNKDKPVIPAAALAGYT [Y1L]: the protein stability index turned out to be 3.79.

Turning to HVRDRADLNKDKPVIPAAALAGYT [Y1H], the protein stability index is 3.7.

For SVRDRADLNKDKPVIPAAALAGYT [Y1S], the protein stability index is 4.24.

In the case of DVRDRADLNKDKPVIPAAALAGYT [Y1D], the protein stability index stood at 4.43.

For the variant KVRDRADLNKDKPVIPAAALAGYT [Y1K], the protein stability index stood at 4.18.

On to TVRDRADLNKDKPVIPAAALAGYT [Y1T], for which the protein stability index was found to be 4.03.

For the variant NVRDRADLNKDKPVIPAAALAGYT [Y1N], the protein stability index turned out to be 4.3.

AVRDRADLNKDKPVIPAAALAGYT [Y1A]: the protein stability index is 4.46.

With CVRDRADLNKDKPVIPAAALAGYT [Y1C], the protein stability index came to 3.31.

Take GVRDRADLNKDKPVIPAAALAGYT [Y1G]: the protein stability index amounted to 4.02.

Take PVRDRADLNKDKPVIPAAALAGYT [Y1P]: the protein stability index amounted to 3.92.

With YVHDRADLNKDKPVIPAAALAGYT [R3H], the protein stability index came out at 1.77.

In the case of YVLDRADLNKDKPVIPAAALAGYT [R3L], the protein stability index was 1.55.

Consider YVNDRADLNKDKPVIPAAALAGYT [R3N], for which the protein stability index was determined as 2.43.

Take YVEDRADLNKDKPVIPAAALAGYT [R3E]: the protein stability index stood at 2.76.

On to YVYDRADLNKDKPVIPAAALAGYT [R3Y], for which the protein stability index was 2.54.

Consider YVTDRADLNKDKPVIPAAALAGYT [R3T], for which the protein stability index was 2.3.

In the case of YVWDRADLNKDKPVIPAAALAGYT [R3W], the protein stability index stood at 1.68.

YVQDRADLNKDKPVIPAAALAGYT [R3Q]: the protein stability index was 2.08.

As for YVKDRADLNKDKPVIPAAALAGYT [R3K], the protein stability index stood at 2.56.

In the case of YVGDRADLNKDKPVIPAAALAGYT [R3G], the protein stability index is 2.08.

On to YVSDRADLNKDKPVIPAAALAGYT [R3S], for which the protein stability index worked out at 2.12.

YVIDRADLNKDKPVIPAAALAGYT [R3I]: the protein stability index was 1.66.

In the case of YVFDRADLNKDKPVIPAAALAGYT [R3F], the protein stability index amounted to 2.33.

Turning to YVADRADLNKDKPVIPAAALAGYT [R3A], the protein stability index amounted to 2.24.

For YVVDRADLNKDKPVIPAAALAGYT [R3V], the protein stability index came to 1.55.

With YVPDRADLNKDKPVIPAAALAGYT [R3P], the protein stability index stood at 2.43.

For the variant YVCDRADLNKDKPVIPAAALAGYT [R3C], the protein stability index was 1.75.

As to YVMDRADLNKDKPVIPAAALAGYT [R3M], the protein stability index came out at 1.52.

With YVDDRADLNKDKPVIPAAALAGYT [R3D], the protein stability index amounted to 2.88.

As to YVRDRYDLNKDKPVIPAAALAGYT [A6Y], the protein stability index was found to be 2.28.

With YVRDRDDLNKDKPVIPAAALAGYT [A6D], the protein stability index turned out to be 1.8.

YVRDRNDLNKDKPVIPAAALAGYT [A6N]: the protein stability index came to 2.08.

On to YVRDRIDLNKDKPVIPAAALAGYT [A6I], for which the protein stability index came out at 2.76.

On to YVRDRLDLNKDKPVIPAAALAGYT [A6L], for which the protein stability index was 1.55.

YVRDRRDLNKDKPVIPAAALAGYT [A6R]: the protein stability index worked out at 1.72.

As to YVRDRVDLNKDKPVIPAAALAGYT [A6V], the protein stability index came out at 2.29.

On to YVRDRMDLNKDKPVIPAAALAGYT [A6M], for which the protein stability index is 3.35.

On to YVRDRTDLNKDKPVIPAAALAGYT [A6T], for which the protein stability index stood at 1.88.

As to YVRDRCDLNKDKPVIPAAALAGYT [A6C], the protein stability index was determined as 2.

YVRDRPDLNKDKPVIPAAALAGYT [A6P]: the protein stability index was 1.61.

YVRDRFDLNKDKPVIPAAALAGYT [A6F]: the protein stability index came out at 2.46.

As to YVRDRSDLNKDKPVIPAAALAGYT [A6S], the protein stability index was found to be 2.05.

As for YVRDREDLNKDKPVIPAAALAGYT [A6E], the protein stability index amounted to 2.27.

On to YVRDRHDLNKDKPVIPAAALAGYT [A6H], for which the protein stability index is 1.87.

As for YVRDRGDLNKDKPVIPAAALAGYT [A6G], the protein stability index worked out at 2.49.

As for YVRDRWDLNKDKPVIPAAALAGYT [A6W], the protein stability index worked out at 2.71.

As to YVRDRQDLNKDKPVIPAAALAGYT [A6Q], the protein stability index was determined as 2.35.

On to YVRDRKDLNKDKPVIPAAALAGYT [A6K], for which the protein stability index came out at 1.2.

In the case of YVRDHADLNKDKPVIPAAALAGYT [R5H], the protein stability index was found to be 1.95.

Consider YVRDYADLNKDKPVIPAAALAGYT [R5Y], for which the protein stability index was 2.7.

On to YVRDWADLNKDKPVIPAAALAGYT [R5W], for which the protein stability index turned out to be 2.48.

For the variant YVRDNADLNKDKPVIPAAALAGYT [R5N], the protein stability index was 1.94.

For the variant YVRDGADLNKDKPVIPAAALAGYT [R5G], the protein stability index was determined as 2.24.

Take YVRDFADLNKDKPVIPAAALAGYT [R5F]: the protein stability index stood at 3.08.

Regarding YVRDMADLNKDKPVIPAAALAGYT [R5M], the protein stability index turned out to be 1.56.

Consider YVRDDADLNKDKPVIPAAALAGYT [R5D], for which the protein stability index stood at 2.14.

YVRDQADLNKDKPVIPAAALAGYT [R5Q]: the protein stability index came out at 1.57.

On to YVRDAADLNKDKPVIPAAALAGYT [R5A], for which the protein stability index is 2.12.

As for YVRDKADLNKDKPVIPAAALAGYT [R5K], the protein stability index turned out to be 2.11.
